Data as given in article PMC12814185, “Receptor-Mediated Shuttling of a D‑Amino Acid Peptide Achieves High Nanomolar Cytosolic Concentrations” (Journal of the American Chemical Society, 2025).

Key:
[1] = target: recombinant human GST-MDM2 (human), Q00987; assay: fluorescence polarisation
[2] = target: T1, chemokine-like receptor 1 (CMKLR1), Q99788
T1 chain: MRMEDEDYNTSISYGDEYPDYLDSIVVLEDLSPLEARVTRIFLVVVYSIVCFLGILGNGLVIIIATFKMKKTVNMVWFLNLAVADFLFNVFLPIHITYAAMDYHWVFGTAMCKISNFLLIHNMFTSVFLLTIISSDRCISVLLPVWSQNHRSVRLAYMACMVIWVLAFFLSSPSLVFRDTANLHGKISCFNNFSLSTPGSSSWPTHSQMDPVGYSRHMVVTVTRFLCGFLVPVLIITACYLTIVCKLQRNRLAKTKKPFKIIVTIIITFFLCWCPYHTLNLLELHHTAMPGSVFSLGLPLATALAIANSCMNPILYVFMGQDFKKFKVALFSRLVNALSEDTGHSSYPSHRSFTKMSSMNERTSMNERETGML

Chain of recombinant human GST-MDM2 (human), Q00987 (Q00987 whole entry): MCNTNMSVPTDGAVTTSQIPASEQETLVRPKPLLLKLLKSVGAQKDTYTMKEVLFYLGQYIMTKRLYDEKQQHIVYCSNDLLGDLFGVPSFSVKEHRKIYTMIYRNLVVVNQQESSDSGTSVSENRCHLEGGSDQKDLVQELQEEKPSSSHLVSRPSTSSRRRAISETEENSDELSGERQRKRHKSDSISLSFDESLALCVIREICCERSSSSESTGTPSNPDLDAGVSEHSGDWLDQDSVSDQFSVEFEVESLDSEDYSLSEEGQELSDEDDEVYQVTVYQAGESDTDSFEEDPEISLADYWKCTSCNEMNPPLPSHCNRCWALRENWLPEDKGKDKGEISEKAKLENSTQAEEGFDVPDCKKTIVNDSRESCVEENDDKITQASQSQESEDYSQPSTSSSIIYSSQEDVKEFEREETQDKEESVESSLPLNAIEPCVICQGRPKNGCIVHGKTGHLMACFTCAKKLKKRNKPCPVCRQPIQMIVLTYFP

Kd [1]: 90 nM | Ca2+ flux assay, EC50 [2]: 220 nM
B1: Cy5-hsLMWP-PMIγ-cC9 (peptide)
chain: GSVSHHHHHHGGHHHHKDWWPLAFEALLRGEV
modifications: (EG)3 spacer between hsLMWP and D-lysine; D-lysine at 17 carrying Cy5-(EG)3 on its side chain; dwwplafeallr (residues 18-29) are D-amino acids; citrulline at 33; (EG)3 spacer between Cit and Pra; propargylglycine (Pra) at 34, joined to the azidolysine of cC9 by CuAAC; C-terminal amide | N-terminal acetyl; azidolysine at 1 (joined to Pra of the other chain by CuAAC); D-homocysteine at 5 in a …
